# From the nanobody polyreactivity screen of Harvey et al. (2022)
# Assay: yeast display, Sf9 membrane polyspecificity reagent, FACS + sequencing; frameworks hold sequencing errors
# Method in brief: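 Synthetic nanobody libraries on Saccharomyces cerevisiae BJ5465 were galactose-induced for 36–48 hours, stained 1 hour at 4 °C with 10% biotinylated, detergent-solubilized Sf9 membrane reagent and enriched on streptavidin microbeads. FACS then separated cells into low and high (top ~1%) gates by anti-HA (expression) and streptavidin (reagent binding) fluorescence. Genes were colony-PCR amplified, MiSeq 2 × 250 sequenced and CDR-length filtered. A clone's polyreactivity label is that of its gate of origin.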
row,Sequence,polyreactivity (PSR sort gate)
1,QVQLVESGGGLVQAGGSLRLSCAASGRIFTYYAMGWYRQAPGKERELVAGISGSGTSTYYADSVKGRFTISRDNAKNTVYLQMNSLKPEDTAVYYCAAIRRQNGLWDYYYWGQGTQVTVSS,low polyreactivity
2,QVQLVESGGGLVQAGGSLRLSCAASGRIFTYYAMGWYRQAPGKERELVATISSSGSTNYADSVKGRFTISRDNAKNTVYLQMNSLKPEDTAVYYSAKKTRRRYDVKYDYWGQGTQVTVSS,low polyreactivity
3,QVQLVESGGGLVQAGGSLRLSCAASGRIFTYYAMGWYRQAPGKVRELVAAISSGGSTYYADSVKGRFTISRDNAKTTVYLQMNSLTPEDTAVYYCAAEPSYYPYLSPTYGYWGQGTQVTVSS,low polyreactivity
4,QVQLVESGGGLVQAGGSLRLSCAASGRIFTYYAMVWYRQAPGKERELVAAITGSGTSTYYADSVKGRFTISRDNAMNTVFLLMNSLKPEDTAVYYCAARNSFSRYYYWGQGTQVTVSS,high polyreactivity
5,QVQLVESGGGLVQAGGSLRLSCAASGRIFTYYGMGWYRQAPGKEWELVAAISSSGDSTFYADSVKGRFTISRDNAKNTVYLQMNSLKPEDTAVYYCAADYYYVWYDYWGQGTQVTVSS,low polyreactivity
6,QVQLVESGGGLVQAGGSLRLSCAASGRIFTYYTKGWSRQAPGKERELVAAITRGGITNYADSVKGRFTISRDNAKNTVYLQMNSLKPEDTAVYYCNAVARVYSEGIRYGYWGQGTQVTVSS,high polyreactivity
7,QVQLVESGGGLVQAGGSLRLSCAASGRIFVDNAMGWYRQAPGKERELVAAITRGGSTYADSVKGRFTISRDNAKNTVYLQMNSLKPEDTAVYYCAADLWSVPFTVYTFGIFYYWGQGTQVTVSS,low polyreactivity
8,QVQLVESGGGLVQAGGSLRLSCAASGRIFVDNTMGWYRQAPGKERELVAVITSGGSTNYADSVKGRFTISRDNAKNTVYLQMNSLKPEDTAVYYCATEPGGYRFDDRPFQYGYWGQGTQVTVSS,low polyreactivity
9,QVQLVESGGGLVQAGGSLRLSCAASGRIFVDYAMGWNRQAPGKERELVAAISWSGRTYYADSVKGRFTISRDNAKNTVYLQMNSLKPEDTAVYYCNAAYHYYGKYDYWGQGTQVTVSS,high polyreactivity
10,QVQLVESGGGLVQAGGSLRLSCAASGRIFVDYVMGWYRQAPGKERELVARITWIGGNTYYADSVKGRFTISRDNAKNTVYLQMKSLKPEETAVYYCNAGLTLLSRRHEGWYGYDYWGQGTQVTVSS,low polyreactivity
11,QVQLVESGGGLVQAGGSLRLSCAASGRIFVGYALGWYRQAPGKERELVAAINRSGSSTYYADSVKGRFTISRDNAKNTVYLQMNSLKPEDTAVYYCNARSGNRYGPRYDYWGQGTQVTVSS,high polyreactivity
12,QVQLVESGGGLVQAGGSLRLSCAASGRIFVGYAMGWYRPAPGKERELVAAINRSGSCTYYADSVKVRFTISRDNAKITGYLQMNSLKPEDTAVYYCNARSGNRYGPRYDDWGQGTQVTVSS,high polyreactivity
13,QVQLVESGGGLVQAGGSLRLSCAASGRIFVGYAMGWYRQAPGKEREFVAAISRNGGRTYYADSVKGRFTISRDNAKNTVYLQMNSLKPEDTAVYYCATEKYVPSPGGYWGQGTQVTVSS,high polyreactivity
14,QVQLVESGGGLVQAGGSLRLSCAASGRIFVGYAMGWYRQAPGKERELVAAINRSGSSTYYADSVKGRFTISRDNAKNTVYLQMNSLKPEDTAVYYCNAARRQGNRYTYDYWGQGTQVTVSS,high polyreactivity
15,QVQLVESGGGLVQAGGSLRLSCAASGRIFVGYAMGWYRQAPGKERELVAAINRSGSSTYYADSVKGRFTISRDNAKNTVYLQMNSLKPEDTAVYYCNARSANRYGPRYDYWGQGTQVTVSS,high polyreactivity
16,QVQLVESGGGLVQAGGSLRLSCAASGRIFVGYAMGWYRQAPGKERELVAVISGRGGSTYYADSVKGRFTISRDNAKNTVYLQMNSLKPEDTAVYYCATDYYGPDYPLDYWGQGTQVTVSS,low polyreactivity
17,QVQLVESGGGLVQAGGSLRLSCAASGRIFVHYVMGWYRQAPGKERELVAAISRSGGRTYYADSVKGRFTISRDNAKNTVYLQMNSLKPEDTAVYYCNVYHWSRVFAIDYYWGQGTQVTVSS,high polyreactivity
